Results published in US20070077628A1.

Legend:
[1] = molecular target: T1, Flag-tagged Tsg101, wild type (UniProt Q61187)
T1 sequence: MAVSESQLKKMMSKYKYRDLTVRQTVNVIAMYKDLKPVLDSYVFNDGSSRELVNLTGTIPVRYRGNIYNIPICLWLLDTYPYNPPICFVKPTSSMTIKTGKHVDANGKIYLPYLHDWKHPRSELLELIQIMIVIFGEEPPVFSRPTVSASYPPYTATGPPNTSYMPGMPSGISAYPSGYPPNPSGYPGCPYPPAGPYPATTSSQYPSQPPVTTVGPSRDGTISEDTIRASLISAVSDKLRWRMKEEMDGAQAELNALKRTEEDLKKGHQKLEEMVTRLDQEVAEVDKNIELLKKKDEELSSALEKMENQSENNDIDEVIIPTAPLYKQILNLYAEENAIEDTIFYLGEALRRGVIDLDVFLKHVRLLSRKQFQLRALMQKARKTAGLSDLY

[2] = molecular target: T2, Flag-tagged Tsg101, wild type, Q61187
T2 chain: T1 sequence

[3] = molecular target: T3, endogenous Tsg101 of HEK-293T cells, Q99816
T3 chain: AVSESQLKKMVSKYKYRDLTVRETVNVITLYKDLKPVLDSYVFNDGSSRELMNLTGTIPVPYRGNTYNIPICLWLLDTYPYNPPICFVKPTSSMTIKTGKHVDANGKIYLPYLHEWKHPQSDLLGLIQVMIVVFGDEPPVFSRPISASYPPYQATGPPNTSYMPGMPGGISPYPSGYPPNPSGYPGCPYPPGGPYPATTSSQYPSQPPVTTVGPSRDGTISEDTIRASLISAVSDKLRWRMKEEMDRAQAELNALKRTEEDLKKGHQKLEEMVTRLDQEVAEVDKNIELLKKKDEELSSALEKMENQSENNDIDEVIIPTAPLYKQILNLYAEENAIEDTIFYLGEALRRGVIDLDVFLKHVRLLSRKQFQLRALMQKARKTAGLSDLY

[4] = molecular target: T4, Flag-tagged Tsg101, wild type (murine) (UniProt Q61187); experiment: cell-based or functional assay
T4 sequence (looked up): T1 sequence

In the case of C675A-hTa1 (HA-tagged), the “in vitro ubiquitylation of immunoprecipitated Tsg101 (125I-ubiquitin)” value (from here on “in vitro ubiquitylation”) [1] is reported as “only background ubiquitylation was observed with two RING mutants of hTa1”.

With H695A-Ta1 (HA-tagged) the “in vitro ubiquitylation” value [1] was “only background ubiquitylation was observed with two RING mutants of hTa1”.

B1: HA-tagged human Ta1, wild type (enzyme, not shown: small tags and cut ends)
chain: MPLFFRKRKPSEEARKRLEYQMCLAKEAGADDILDISKCELSEIPFGAFATCKVLQKKVLIVHTNHLTSLLPKSCSLLSLATIKVLDLHDNQLTALPDDLGQLTALQVLNVERNQLMQLPRSIGNLTQLQTLNVKDNKLKELPDTVGELRSLRTLNISGNEIQRLPQMLAHVRTLEMLSLDASAMVYPPREVCGAGTAAILQFLCKESGLEYYPPSQYLLPILEQDGIENSRDSPDGPTDRFSREELEWQNRFSDYEKRKEQKMLEKLEFERRLELGQREHTQLLQQSSSQKDEILQTVKEEQSRLEQGLSEHQRHLDAERQRLQEQLKQTEQNISSRIQKLLQDNQRQKKSSEILKSLENERIRMEQLMSITQEETESLRRRDVASAMQQMLTESCKNRLIQMAYESQRQNLVQQACSSMAEMDERFQQILSWQQMDQNKAISQILQESAMQKAAFEALQVKKDLMHRQIRSQIKLIETELLQLTQLELKRKSLDTESLQEMISEQRWALSSLLQQLLKEKQQREEELREILTELEAKSETRQENYWLIQYQRLLNQKPLSLKLQEEGMERQLVALLEELSAEHYLPIFAHHRLSLDLLSQMSPGDLAKVGVSEAGLQHEILRRVQELLDAARIQPELKPPMGEVVTPTAPQEPPESVRPSAPPAELEVQASECVVCLEREAQMIFLNCGHVCCCQQCCQPLRTCPLCRQDIAQRLRIYHSS
In the case of B1, the “HIV-1 infectivity, single-cycle infection assay” value (“HIV-1 infectivity” below) [2] is reported as “when combined with an ectopic Tsg101, hTa1 exerted a significantly greater inhibitory effect”, the “in vitro ubiquitylation” value [2] is reported as “Substantial Tsg101 ubiquitylation was observed in complexes pre-incubated with WT-hTa1” and the “HIV-1 infectivity” value [3] is reported as “overexpression of hTa1 reduces infectivity by approximately 40%”. For the same molecule, the decrease in GFP-Gag secretion into virus-like particles (VLPs), HEK-293T cells [4] was > 90%.

B2: Ta1 ΔPTAP/PSAP (HA-tagged hTa1 with the PTAP motifs deleted) (protein)
chain: MPLFFRKRKPSEEARKRLEYQMCLAKEAGADDILDISKCELSEIPFGAFATCKVLQKKVLIVHTNHLTSLLPKSCSLLSLATIKVLDLHDNQLTALPDDLGQLTALQVLNVERNQLMQLPRSIGNLTQLQTLNVKDNKLKELPDTVGELRSLRTLNISGNEIQRLPQMLAHVRTLEMLSLDASAMVYPPREVCGAGTAAILQFLCKESGLEYYPPSQYLLPILEQDGIENSRDSPDGPTDRFSREELEWQNRFSDYEKRKEQKMLEKLEFERRLELGQREHTQLLQQSSSQKDEILQTVKEEQSRLEQGLSEHQRHLDAERQRLQEQLKQTEQNISSRIQKLLQDNQRQKKSSEILKSLENERIRMEQLMSITQEETESLRRRDVASAMQQMLTESCKNRLIQMAYESQRQNLVQQACSSMAEMDERFQQILSWQQMDQNKAISQILQESAMQKAAFEALQVKKDLMHRQIRSQIKLIETELLQLTQLELKRKSLDTESLQEMISEQRWALSSLLQQLLKEKQQREEELREILTELEAKSETRQENYWLIQYQRLLNQKPLSLKLQEEGMERQLVALLEELSAEHYLPIFAHHRLSLDLLSQMSPGDLAKVGVSEAGLQHEILRRVQELLDAARIQPELKPPMGEVVPAELEVQASECVVCLEREAQMIFLNCGHVCCCQQCCQPLRTCPLCRQDIAQRLRIYHSS
With B2 the “HIV-1 infectivity” value [3] was “mediated a relatively mild effect on viral infectivity”.

B3: ΔCC-hTa1 (HA-tagged hTa1 with the coiled-coil deleted) (protein)
chain: MPLFFRKRKPSEEARKRLEYQMCLAKEAGADDILDISKCELSEIPFGAFATCKVLQKKVLIVHTNHLTSLLPKSCSLLSLATIKVLDLHDNQLTALPDDLGQLTALQVLNVERNQLMQLPRSIGNLTQLQTLNVKDNKLKELPDTVGELRSLRTLNISGNEIQRLPQMLAHVRTLEMLSLDASAMVYPPREVCGAGTAAILQFLCKESGLEYYPPSQYLLPILEQDGIENSRDSPDGPTDRFSREELEWQNRFSDYEKRKEQKMLEKLEFERRLELGQREHTQLLQQSSSQKDEILQTVKEEQSRLEQGLSEHQRHLDAERQRLQEQLKQTEQNISSRIQKLLQDNQRQKKSSEILKSLENERIRMEQLMSITQEETESLRRRDVASAMQQMLTESCKNRLIQMAYESQRQNLVQQACSSMAEMDERFQQILSWQQMDQNKAISQILQESAMQKAAFEALQVKKDLMHRQIRSQIKLEELSAEHYLPIFAHHRLSLDLLSQMSPGDLAKVGVSEAGLQHEILRRVQELLDAARIQPELKPPMGEVVTPTAPQEPPESVRPSAPPAELEVQASECVVCLEREAQMIFLNCGHVCCCQQCCQPLRTCPLCRQDIAQRLRIYHSS
With B3 the “HIV-1 infectivity” value [3] was “RING or CC mutants of hTa1 potently inhibited HIV-1 infectivity even in the absence of an ectopic Tsg101”.
